The chains are these.
B1: Platelet-activating factor acetylhydrolase IB subunit beta (Mus musculus), P63005 (parent)
chain: MVLSQRQRDELNRAIADYLRSNGYEEAYSVFKKEAELDMNEELDKKYAGLLEKKWTSVIRLQKKVMELESKLNEAKEEFTSGGPLGQKRDPKEWIPRPPEKYALSGHRSPVTRVIFHPVFSVMVSASEDATIKVWDYETGDFERTLKGHTDSVQDISFDHSGKLLASCSADMTIKLWDFQGFECIRTMHGHDHNVSSVAIMPNGDHIVSASRDKTIKMWEVQTGYCVKTFTGHREWVRMVRPNQDGTLIASCSNDQTVRVWVVATKECKAELREHEHVVECISWAPESSYSSISEATGSETKKSGKPGPFLLSGSRDKTIKMWDVSTGMCLMTLVGHDNWVRGVLFHSGGKFILSCADDKTLRVWDYKNKRCMKTLNAHEHFVTSLDFHKTAPYVVTGSVDQTVKVWECR
partner: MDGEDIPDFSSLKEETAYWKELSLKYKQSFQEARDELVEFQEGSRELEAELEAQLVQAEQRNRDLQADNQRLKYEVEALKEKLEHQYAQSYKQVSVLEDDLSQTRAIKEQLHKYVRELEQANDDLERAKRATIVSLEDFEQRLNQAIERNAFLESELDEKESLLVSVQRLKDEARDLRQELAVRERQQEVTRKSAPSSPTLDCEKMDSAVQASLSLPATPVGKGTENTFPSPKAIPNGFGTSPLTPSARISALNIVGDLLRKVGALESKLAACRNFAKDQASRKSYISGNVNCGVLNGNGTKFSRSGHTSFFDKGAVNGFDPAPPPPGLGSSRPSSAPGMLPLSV

In the assay the parent is B1. The following applies: with ndel1_human NDEL1, Q9GZM8.
As to MVLSQRQRDELNRAIADYLRSNGYEEAYSVFKKEAELDMNEELDKKYAGLLEKKWTSVIRLQKKVMELESKLNEAKEEFTSGGPLGQKRDPKEWIPRPPEKYALSGHRSPVTRVIFHPVFSVMVSASEDATIKVWDYETGDFERTLKGHTDSVQDISFDHSGKLLASCSADMTIKLWDFQGFECIRTMHGHDHNVSSVAIMPNGDHIVSASADKTIKMWEVQTGYCVKTFTGHREWVRMVRPNQDGTLIASCSNDQTVRVWVVATKECKAELREHEHVVECISWAPESSYSSISEATGSETKKSGKPGPFLLSGSRDKTIKMWDVSTGMCLMTLVGHDNWVRGVLFHSGGKFILSCADDKTLRVWDYKNKRCMKTLNAHEHFVTSLDFHKTAPYVVTGSVDQTVKVWECR [R212A], the “effect of a mutation on the interaction” value was “disrupting interaction”.

MVLSQRQRDELNRAIADYLRSNGYEEAYSVFKKEAELDMNEELDKKYAGLLEKKWTSVIRLQKKVMELESKLNEAKEEFTSGGPLGQKRDPKEWIPRPPEKYALSGHRSPVTRVIFHPVFSVMVSASEDATIKVWDYETGDFERTLAGHTDSVQDISFDHSGKLLASCSADMTIKLWDFQGFECIRTMHGHDHNVSSVAIMPNGDHIVSASRDKTIKMWEVQTGYCVKTFTGHREWVRMVRPNQDGTLIASCSNDQTVRVWVVATKECKAELREHEHVVECISWAPESSYSSISEATGSETKKSGKPGPFLLSGSRDKTIKMWDVSTGMCLMTLVGHDNWVRGVLFHSGGKFILSCADDKTLRVWDYKNKRCMKTLNAHEHFVTSLDFHKTAPYVVTGSVDQTVKVWECR [K147A]: the “effect of a mutation on the interaction” value is “with no effect”.

For the origin of these results see IntAct's records for PubMed 22114287.
